Like-named read-outs stand apart in the source and are kept apart here. One block for each binder: values may come before it.
Tests used:
[1] = molecular target: T1, human TIGIT (human, UniProt Q495A1 22-141, limits assumed); test: monovalent affinity of the hTIGIT IgGs; method not named in Example 14
T1 construct: also called hTIGIT
T1 sequence (looked up): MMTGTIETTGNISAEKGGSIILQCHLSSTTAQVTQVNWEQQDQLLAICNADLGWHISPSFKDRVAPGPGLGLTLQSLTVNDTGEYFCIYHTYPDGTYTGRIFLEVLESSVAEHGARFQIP

[2] = molecular target: T2, hCRTH2R (human, UniProt Q9Y5Y4 1-395); test: cell-based or functional assay
T2 sequence (looked up): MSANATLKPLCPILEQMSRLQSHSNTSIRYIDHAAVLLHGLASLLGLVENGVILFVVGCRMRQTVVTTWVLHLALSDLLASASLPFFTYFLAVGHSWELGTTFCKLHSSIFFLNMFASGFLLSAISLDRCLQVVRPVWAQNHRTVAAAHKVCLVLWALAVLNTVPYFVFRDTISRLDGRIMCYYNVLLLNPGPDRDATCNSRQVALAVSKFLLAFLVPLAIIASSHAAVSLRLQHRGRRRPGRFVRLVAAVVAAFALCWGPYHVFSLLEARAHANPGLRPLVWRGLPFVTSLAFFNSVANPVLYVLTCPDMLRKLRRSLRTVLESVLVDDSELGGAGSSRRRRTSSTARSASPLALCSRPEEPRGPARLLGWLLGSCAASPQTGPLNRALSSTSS

[3] = molecular target: T2, hCRTH2R; test: flow cytometry (MFI) cell binding titration; number in grey print, taken with the upper grey curve; the sheet does not label the cell lines of the two curves
[4] = molecular target: T2, hCRTH2R; test: flow cytometry (MFI) cell binding titration, upper grey curve; cell lines not labelled on the sheet
[5] = molecular target: T2, hCRTH2R; test: cell-based or functional assay; remark: listed apart in the source
[6] = molecular target: T2, hCRTH2R; test: flow cytometry (MFI) cell binding titration; number in grey print, taken with the upper grey curve; the sheet does not label the cell lines of the two curves; remark: listed apart in the source
[7] = molecular target: T2, hCRTH2R; test: cell-based or functional assay; remark: listed apart in the source
[8] = molecular target: T2, hCRTH2R; test: flow cytometry (MFI) cell binding titration; number in grey print, taken with the upper grey curve; the sheet does not label the cell lines of the two curves; remark: listed apart in the source
[9] = molecular target: T3, CRTH2R (UniProt Q9Y5Y4 1-395, limits assumed); test: flow cytometry (MFI), CHO CRTH2R-positive cells against parental CHO cells; same panel as in FIG. 15B; grey = CRTH2R cells, black = parental cells (no legend on the panel)
T3 construct: whole, on cells; also called Prostaglandin D2 receptor 2 (DP2 or CRTH2) receptor
T3 sequence (looked up): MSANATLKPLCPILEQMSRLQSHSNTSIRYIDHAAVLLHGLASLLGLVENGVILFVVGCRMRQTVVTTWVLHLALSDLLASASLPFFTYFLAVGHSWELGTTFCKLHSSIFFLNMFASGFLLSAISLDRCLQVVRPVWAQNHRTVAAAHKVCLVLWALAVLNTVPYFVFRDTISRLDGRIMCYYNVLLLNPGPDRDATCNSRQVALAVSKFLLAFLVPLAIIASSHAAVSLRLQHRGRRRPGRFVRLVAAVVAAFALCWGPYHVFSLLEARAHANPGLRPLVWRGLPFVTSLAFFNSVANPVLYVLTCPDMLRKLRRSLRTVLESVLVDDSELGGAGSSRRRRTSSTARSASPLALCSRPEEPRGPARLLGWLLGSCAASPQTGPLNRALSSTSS
Experimental: (§1) Cell binding of anti-CRTH2R antibodies was determined by testing on CHO CRTH2R-positive cells (GFP+) and parental CHO cells (GFP−), comparing parental negative and target positive cells to rule out false-positives. Antibodies as listed in Table 14A were titrated starting at 100 nM (15 ug/mL) with 3-fold titrations, for a total of 8 points. Two antibodies (gPCR-51 and gPCR-52) were used as a positive control.

[10] = molecular target: T3, CRTH2R; test: cell-based or functional assay
[11] = molecular target: T3, CRTH2R; test: flow cytometry (MFI), CHO CRTH2R-positive cells against parental CHO cells, 3-fold titration from 100 nM; grey = CRTH2R cells, black = parental cells (no legend on the panel)
Experimental: as §1

Kd [1]: 148 nM
B3: TIGIT-55-12 (antibody, V domains shown)
VH: EVQLLESGGGLVQPGGSLRLSCAASGFTLSSYAMAWVRQAPGKGLEWVSTLSGSGGSTYYADSVKGRFTISRDNSKNTLYLQMNSLRAEDTAVYYCARVRVGAYDAFDIWGQGTLVTVSS
VL: DIQMTQSPYSLSASVGDRVTITCRASQSIRRYLNWYQQKPGKAPKLLIYRASTLQTGVPSRFSGSGSGTDFTLTISSLQPEDFATYYCQQTYSSPFTFGGGTKVEIK
notes: hTIGIT IgG

Kd [1]: 112 nM
B4: TIGIT-55-13 (antibody, V domains shown)
VH: EVQLLESGGGLVQPGGSLRLSCAASGFTFSTYGMNWVRQAPGKGLEWVSTISGSGGSTYFADSVKGRFTISRDNSKNTLYLQMNSLRAEDTAVYYCARNSGWFMPFDYWGQGTLVTVSS
VL: DIQMTQSPSSLSASVGDRVTITCRTSQSISTYLNWYQQKPGKAPKLLIYATSRLQSGVPSRFSGSGSGTDFTLTISSLQPEDFATYYCQQSYTTPLTFGGGTKVEIK
notes: hTIGIT IgG

Kd [1]: 139 nM
B6: TIGIT-55-14 (antibody, V domains shown)
VH: EVQLLESGGGLVQPGGSLRLSCAASGFMFSRYAMSWVRQAPGKGLEWVSSISGSGGTTYYADSVKGRFTISRDNSKNTLYLQMNSLRAEDTAVYYCARRGSGWYIDSWGQGTLVTVSS
VL: DIQMTQSPSSLSASVGDRVTITCRASQSVSRYLNWYQQKPGKAPKLLIYGSSNLQSGVPSRFSGSGSGTDFTLTISSLQPEDFATYYCQESYSTPFTFGGGTKVEIK
notes: hTIGIT IgG

Kd [1]: 231 nM
B7: TIGIT-55-07 (antibody, V domains shown)
VH: EVQLLESGGGLVQPGGSLRLSCAASGFTFSSYGMTWVRQAPGKGLEWVSAISGRGSSTYYADSVKGRFTISRDNSKNTLYLQMNSLRAEDTAVYYCARTPYRSGWADYWGQGTLVTVSS
VL: DIQMTQSPSSLSASVGDRVTITCRASQNIKTYLNWYQQKPGKAPKLLIYAASSLHTGVPSRFSGSGSGTDFTLTISSLQPEDFATYYCQQTYSIPQTFGGGTKVEIK
notes: hTIGIT IgG

Kd [1]: 327 nM
B11: TIGIT-55-11 (antibody, V domains shown)
VH: EVQLLESGGGLVQPGGSLRLSCAASGFTFTNYGMSWVRQAPGKGLEWVSSISGSGSTTYYADSVKGRFTISRDNSKNTLYLQMNSLRAEDTAVYYCASVKRWGYYFNWWGQGTLVTVSS
VL: DIQMTQSPSSLSASVGDRVTITCRASQNINYYLNWYQQKPGKAPKLLIYGASSLQNGVPSRFSGSGSGTDFTLTISSLQPEDFATYYCQQSYITPYTGGGTKVEIK
notes: hTIGIT IgG

Kd [1]: 113 nM
B12: TIGIT-55-08 (antibody, V domains shown)
VH: EVQLLESGGGLVQPGGSLRLSCAASGFMFSDYAMSWVRQAPGKGLEWVSGISGSGGYTYYADSVKGRFTISRDNSKNTLYLQMNSLRAEDTAVYYCTRSWYYYYGMDVWGQGTLVTVSS
VL: DIQMTQSPSSLSASVGDRVTITCRAGQSIRSYLNWYQQKPGKAPKLLIYASSNLQSGVPSRFSGSGSGTDFTLTISSLQPEDFATYYCQQSYSTPLLTFGGGTKVEIK
notes: hTIGIT IgG

Further lines, the binder ahead of its results:

B1: TIGIT-55-01 (antibody, V domains shown)
VH: EVQLLESGGGLVQPGGSLRLSCAASGFTFGSYGMSWVRQAPGKGLEWVSSISGSGSTTYYADSVKGRFTISRDNSKNTLYLQMNSLRAEDTAVYYCARVAGSSGWAFDYWGQGTLVTVSS
VL: DIQMTQSPSSLSASVGDRVTITCRASQAISNYLNWYQQKPGKAPKLLIYAASRLQSGVPSRFSGSGSGTDFTLTISSLQPEDFATYYCQESYSTPFTFGGGTKVEIK
notes: hTIGIT IgG
Kd [1]: 15.9 nM

B2: TIGIT-55-06 (antibody, V domains shown)
VH: EVQLLESGGGLVQPGGSLRLSCAASGFTFSRYTMNWVRQAPGKGLEWVSGISGSGGGAYYADSVKGRFTISRDNSKNTLYLQMNSLRAEDTAVYYCARNSYGPPRSFGMDVWGQGTLVTVSS
VL: DIQMTQSPSSLSASVGDRVTITCRASQSISKYLNWYQQKPGKAPKLLIYGASSLRGGVPSRFSGSGSGTDFTLTISSLQPEDFATYYCQQSYRPPLTFGGGTKVEIK
notes: hTIGIT IgG
Kd [1]: 153 nM

B5: TIGIT-55-02 (antibody, V domains shown)
VH: EVQLLESGGGLVQPGGSLRLSCAASGLTFSNYAMTWVRQAPGKGLEWVSGISRSGGSTYYADSVKGRFTISRDNSKNTLYLQMNSLRAEDTAVYYCATLRLYSSGGGIDYWGQGTLVTVSS
VL: DIQMTQSPSSLSASVGDRVTITCRASQYISTYLNWYQQKPGKAPKLLIYAASSLQGGVPSRFSGSGSGTDFTLTISSLQPEDFATYYCQQNYITPLTFGGGTKVEIK
notes: hTIGIT IgG
Kd [1]: 141 nM

B8: CRTH2-48-3 (antibody, V domains shown)
VH: EVQLVESGGGLVQAGGSLRLSCAASGSIFRINAMGWFRQAPGKEREGVAAINNFGTTKYADSVKGRFTISADNAKNTVYLQMNSLKPEDTAVYYCAAVRWGPRNDDRYDWGQGTQVTVSS
VL: DIQMTQSPSSLSASVGDRVTITCRASQSISSDLNWYQQKPGKAPKLLIYFASGLQSGVPSRFSGSGSGTDFTLTISSLQPEDFATYYCQQSYSSPLTFGGGTKVEIKR
notes: CRTH2R immunoglobulin (IgG); also called CRTH2-48-03
IC50 of PGD2 in the CRTH2 DiscoverX cAMP assay after 200nM IgG pre-incubation (+ no Ab: 0.2487), the axis reads PGD2 [2]: 0.356 nM
EC50 [3]: 0.579 nM
EC50 (read off the curve) [4]: ~2 nM

B9: CRTH2-48-21 (antibody, V domains shown)
VH: EVQLVESGGGLVQAGGSLRLSCAASGSFFSINAMGWFRQAPGKEREFVAGITRSGVSTSYADSVKGRFTISADNAKNTVYLQMNSLKPEDTAVYYCAAHRIVVGGTSVGDWRWGQGTQVTVSS
VL: DIQMTQSPSSLSASVGDRVTITCRTSQSISNYLNWYQQKPGKAPKLLIYATSSLESGVPSRFSGSGSGTDFTLTISSLQPEDFATYYCQQSYSTLLTFGGGTKVEIKR
notes: CRTH2R immunoglobulin (IgG)
IC50 of PGD2 in the CRTH2 DiscoverX cAMP assay after 200nM IgG pre-incubation (+ no Ab: 0.4559), the axis reads PGD2 [5]: 0.567 nM
EC50 [6]: 1.32 nM

B10: CRTH2-48-27 (antibody, V domains shown)
VH: EVQLVESGGGLVQAGGSLRLSCAASGSIFHINAMGWFRQAPGKEREGVAAINNFGTTKYADSVKGRFTISANNAKNTVYLQMNSLKPEDTAVYYCAAVRWGPRNDDRYDWGQGTLVTVSS
VL: DIQMTQSPSSLSASVGDRVTITCRASQSISRYLHWYQQKPGKAPKLLIYGASRLESGVPSRFSGSGSGTDFTLTISSLQPEDFATYYCRQSYSTPWTFGGGTKVEIKR
notes: CRTH2R immunoglobulin (IgG)
IC50 of PGD2 in the CRTH2 DiscoverX cAMP assay after 200nM IgG pre-incubation (+ no Ab: 0.4559), the axis reads PGD2 [7]: 0.407 nM
EC50 [8]: 0.859 nM

B13: CRTH2-9 (antibody, V domains shown)
VH: QVQLVQSGAEVKKPGSSVKVSCKASGGTFSSYAISWVRQAPGQGLEWMGGIIPIFGTANYAQKFQGRVTITADESTSTAYMELSSLRSEDTAVYYCARDMYYDFWLGDQSTGSLIGAEVVPADDAFDIWGQGTLVTVSS
VL: QSVLTQPPSVSAAPGQKVTISCSGSTSNIGNNYVSWYQQLPGTAPKLLIYENDERPSGIPDRFSGSKSGTSATLGITGLQTGDEADYYCATWDTRLSAVVFGGGTKLTVL
notes: CRTH2R IgG
EC50 [9]: 14.9 nM
IC50 fold difference of the PGD2 dose response (cAMP) with 100 nM IgG [10]: > 2 fold
antagonist activity in PGD2-induced cAMP assay at 33 nM IgG [10]: > 20%
EC50 [11]: 14.9 nM

B14: TIGIT-55-05 (antibody, V domains shown)
VH: EVQLLESGGGLVQPGGSLRLSCAASGFVFSSYAMNWVRQAPGKGLEWVSTVSGSGGTTYYADSVKGRFTISRDNSKNTLYLQMNSLRAEDTAVYYCARAPYSSSSWFDYWGQGTLVTVSS
VL: DIQMTQSPSSLSASVGDRVTITCRASQSVRSYLNWYQQKPGKAPKLLIYTATSLESGVPSRFSGSGSGTDFTLTISSLQPEDFATYYCQQSYGLPRTFGGGTKVEIK
notes: hTIGIT IgG
Kd [1]: 97.6 nM

B15: CRTH2-27 (antibody, V domains shown)
VH: QVQLVESGGGVVQPGRSLRLSCAASGFTFDNYGMHWVRQAPGKGLEWVAVISYEGSNKKYADSVKGRFTISRDNSKNTLYLQMNSLRAEDTAVYYCARDMYYDFGSIYGEDVVGELPEVVPADDAFDIWGQGTLVTVSS
VL: QSALTQPASVSGSPGQSITISCTGTSNDVGAYNFVSWYQQHPGKAPKLMIYDISNRPSGVSNRFSGSKSGNTASLTISGLQAEDEADYYCSSYTRSNTRVFGGGTKLTVL
notes: CRTH2R IgG
EC50 [9]: 42 nM
IC50 fold difference of the PGD2 dose response (cAMP) with 100 nM IgG [10]: > 2 fold
EC50 [11]: 42 nM
